Measured values as given in article PMC8191807, “The fidelity of DNA replication, particularly on GC-rich templates, is reduced by defects of the Fe–S cluster in DNA polymerase δ” (Nucleic Acids Research, 2021).

T1: Pol3p, catalytic subunit of DNA polymerase δ (overexpressed for Pol δ purification) (S. cerevisiae, UniProt P15436 1-1097)
T1 construct: Pol3p, catalytic subunit of DNA polymerase δ, Saccharomyces cerevisiae; also called catalytic subunit of Pol δ; source: purified on glutathione Sepharose 4B, PreScission Protease, MonoS FPLC
T1 sequence (looked up): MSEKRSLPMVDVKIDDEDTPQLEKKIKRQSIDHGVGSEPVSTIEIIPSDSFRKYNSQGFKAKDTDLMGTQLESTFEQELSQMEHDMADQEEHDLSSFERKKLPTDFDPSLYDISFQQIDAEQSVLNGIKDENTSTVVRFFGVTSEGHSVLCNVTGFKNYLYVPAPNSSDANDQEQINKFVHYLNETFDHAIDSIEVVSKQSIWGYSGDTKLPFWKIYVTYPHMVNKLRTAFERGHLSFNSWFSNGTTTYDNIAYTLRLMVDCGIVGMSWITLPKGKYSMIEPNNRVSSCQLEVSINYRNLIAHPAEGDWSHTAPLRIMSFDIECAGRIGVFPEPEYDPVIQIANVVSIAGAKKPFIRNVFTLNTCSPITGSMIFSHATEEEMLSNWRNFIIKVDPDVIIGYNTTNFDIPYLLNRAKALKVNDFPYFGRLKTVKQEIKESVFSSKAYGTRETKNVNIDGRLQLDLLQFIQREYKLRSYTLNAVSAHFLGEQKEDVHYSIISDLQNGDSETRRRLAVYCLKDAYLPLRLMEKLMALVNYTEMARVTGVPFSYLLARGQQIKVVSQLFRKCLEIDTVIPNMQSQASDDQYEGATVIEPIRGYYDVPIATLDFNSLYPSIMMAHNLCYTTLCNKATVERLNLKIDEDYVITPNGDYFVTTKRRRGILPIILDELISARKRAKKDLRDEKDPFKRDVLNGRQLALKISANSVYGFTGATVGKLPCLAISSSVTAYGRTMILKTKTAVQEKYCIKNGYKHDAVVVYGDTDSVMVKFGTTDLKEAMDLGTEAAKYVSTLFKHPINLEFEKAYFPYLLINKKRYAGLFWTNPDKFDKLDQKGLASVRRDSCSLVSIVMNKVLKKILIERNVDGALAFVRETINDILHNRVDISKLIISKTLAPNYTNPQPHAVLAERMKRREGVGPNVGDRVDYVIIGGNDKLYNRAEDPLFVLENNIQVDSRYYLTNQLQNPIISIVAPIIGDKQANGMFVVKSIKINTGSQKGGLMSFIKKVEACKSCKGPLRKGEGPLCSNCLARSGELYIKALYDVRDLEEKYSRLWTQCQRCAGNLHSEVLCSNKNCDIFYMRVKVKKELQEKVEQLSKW

T2: Pol3 fused to a LexA DNA-binding domain (LexABD-POL3, pBL322) (S. cerevisiae, UniProt P15436 1-1097)
T2 construct: Pol3p, catalytic subunit of DNA polymerase δ, Saccharomyces cerevisiae; also called Pol3^BD; source: yeast two-hybrid fusion (2μ vector pBTM116, strain L40 or its met18Δ derivative DKy440)
T2 sequence (looked up): T1 sequence (looked up)

B1: Pol32p, accessory subunit of DNA polymerase δ (overexpressed for Pol δ purification) (natural protein, S. cerevisiae, UniProt P47110 1-350, looked up)
chain: MDQKASYFINEKLFTEVKPVLFTDLIHHLKIGPSMAKKLMFDYYKQTTNAKYNCVVICCYKDQTIKIIHDLSNIPQQDSIIDCFIYAFNPMDSFIPYYDIIDQKDCLTIKNSYELKVSESSKIIERTKTLEEKSKPLVRPTARSKTTPEETTGRKSKSKDMGLRSTALLAKMKKDRDDKETSRQNELRKRKEENLQKINKQNPEREAQMKELNNLFVEDDLDTEEVNGGSKPNSPKETDSNDKDKNNDDLEDLLETTAEDSLMDVPKIQQTKPSETEHSKEPKSEEEPSSFIDEDGYIVTKRPATSTPPRKPSPVVKRALSSSKKQETPSSNKRLKKQGTLESFFKRKAK
notes: Pol32p, accessory subunit of DNA polymerase δ, Saccharomyces cerevisiae
B2: Pol31p, accessory subunit of DNA polymerase δ (overexpressed for Pol δ purification) (natural protein, S. cerevisiae, UniProt P46957 1-487, looked up)
chain: MDALLTKFNEDRSLQDENLSQPRTRVRIVDDNLYNKSNPFQLCYKKRDYGSQYYHIYQYRLKTFRERVLKECDKRWDAGFTLNGQLVLKKDKVLDIQGNQPCWCVGSIYCEMKYKPNVLDEVINDTYGAPDLTKSYTDKEGGSDEIMLEDESGRVLLVGDFIRSTPFITGVVVGILGMEAEAGTFQVLDICYPTPLPQNPFPAPIATCPTRGKIALVSGLNLNNTSPDRLLRLEILREFLMGRINNKIDDISLIGRLLICGNSVDFDIKSVNKDELMISLTEFSKFLHNILPSISVDIMPGTNDPSDKSLPQQPFHKSLFDKSLESYFNGSNKEILNLVTNPYEFSYNGVDVLAVSGKNINDICKYVIPSNDNGESENKVEEGESNDFKDDIEHRLDLMECTMKWQNIAPTAPDTLWCYPYTDKDPFVLDKWPHVYIVANQPYFGTRVVEIGGKNIKIISVPEFSSTGMIILLDLETLEAETVKIDI
notes: Pol31p, accessory subunit of DNA polymerase δ, Saccharomyces cerevisiae
B3: Pol31 fused to a GAL4-activation domain (GAL4AD-POL31, pBL364) (natural protein, S. cerevisiae, UniProt P46957 1-487, looked up)
chain: B2 chain
notes: Pol31p, accessory subunit of DNA polymerase δ, Saccharomyces cerevisiae; also called Pol31^AD; source: yeast two-hybrid fusion (2μ vector pACT2, strain L40 or its met18Δ derivative DKy440)

Experiments:
[1] = target: T1, Pol3p, catalytic subunit of DNA …; assay: co-purification (glutathione Sepharose, MonoS FPLC), composition by gel electrophoresis; Pol3p, Pol31p and Pol32p overexpressed together in the MET18 strain BJ2168; batch bound to glutathione Sepharose 4B at 4°C, washed with Hep250, Hep150, Hep50, eluted with 20 mM glutathione, PreScission Protease, MonoS gradient 50-1000 mM NaCl; conditions: partners not purified
[2] = target: T2, Pol3 fused to a LexA DNA-binding domain …; assay: two-hybrid; LexA DNA-binding domain and GAL4 activation domain fusions, (lexAop)8-lacZ reporter, quantitative β-galactosidase assays in triplicate; wild-type strain L40 and its met18Δ derivative DKy440; conditions: partners not purified

| Binder | stoichiometry N [1] | fold reduction of β-galactosidase in the met18 strain relative to the wild-type strain [2] [fold] |
| --- | --- | --- |
| B1 | 1.1 molar ratio relative to Pol3p | – |
| B2 | 0.8 molar ratio relative to Pol3p | – |
| B3 | – | ~2 |
